The values below come from patent US20240424101A1 (CORREGENE BIOTECHNOLOGY, published 2024).

In assay [1] the target is HPV16 E7 11-19 epitope (…) presented by HLA-A*02:01 (HPV16; human). Put plainly: cell-based or functional assay.
Assay [2] concerns the target T1, HPV16 E7 peptide on HLA-A*02:01 (human).
T1 peptide: YMLDLQPET
Briefly: multimer staining.

B1: CRTE7A2 TCR (variable regions fused to murine constant regions) (TCR, V domains shown)
V domain 1: RKEVEQDPGPFNVPEGATVAFNCTYSNSASQSFFWYRQDCRKEPKLLMSVYSSGNEDGRFTAQLNRASQYISLLIRDSKLSDSATYLCAVISAGTALIFGKGTTLSVSS
V domain 2: DAGVTQSPTHLIKTRGQQVTLRCSPKSGHDTVSWYQQALGQGPQFIFQYYEEEERQRGNFPDRFSGHQFPNYSSELNVNALLLGDSALYLCASSLGWRGGLYTEAFFGQGTRLTVVE
Regarding B1, the “activation level of the NFAT-GFP reporter gene in Jurkat cells co-incubated with peptide-loaded T2 cells (EC50)” value in assay [1] is 31 nM.

B2: CRTE7A2 (TCR, V domains shown)
Valpha: B1 V domain 1
Vbeta: DAGVTQSPTHLIKTRGQQVTLRCSPKSGHDTVSWYQQALGQGPQFIFQYYEEEERQRGNFPDRFSGHQFPNYSSELNVNALLLGDSALYLCASSLGWRGGLYTEAFFGQGTRLTVV
As to B2, in assay [2], the binding result is “recognises”.
